Reference: publication PMC11996680

Biological target: T1, HOOK3-SNAPf labeled with Alexa-647 (human) (UniProt Q86VS8)
T1 sequence (chain, Alexa-647 on the SNAP tag): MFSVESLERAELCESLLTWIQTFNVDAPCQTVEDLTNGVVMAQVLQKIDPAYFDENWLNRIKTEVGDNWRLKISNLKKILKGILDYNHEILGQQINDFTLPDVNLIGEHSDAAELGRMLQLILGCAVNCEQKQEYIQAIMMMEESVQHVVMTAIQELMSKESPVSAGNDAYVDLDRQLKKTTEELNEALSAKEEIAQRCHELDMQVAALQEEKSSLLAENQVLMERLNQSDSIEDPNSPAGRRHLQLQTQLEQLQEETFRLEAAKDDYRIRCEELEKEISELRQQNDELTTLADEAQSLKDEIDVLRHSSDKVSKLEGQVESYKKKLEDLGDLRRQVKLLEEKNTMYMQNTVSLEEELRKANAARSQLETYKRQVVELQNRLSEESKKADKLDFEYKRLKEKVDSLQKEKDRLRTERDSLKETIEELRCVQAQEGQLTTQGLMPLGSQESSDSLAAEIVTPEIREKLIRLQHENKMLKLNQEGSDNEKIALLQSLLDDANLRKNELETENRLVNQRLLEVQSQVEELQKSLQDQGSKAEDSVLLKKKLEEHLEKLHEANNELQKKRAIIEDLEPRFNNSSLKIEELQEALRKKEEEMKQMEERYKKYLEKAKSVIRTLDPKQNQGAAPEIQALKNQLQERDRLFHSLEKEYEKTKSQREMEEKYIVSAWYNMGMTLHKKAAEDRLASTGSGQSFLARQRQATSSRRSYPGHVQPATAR

B1: GST–KIF1C^642–922–GFP (domain or fragment)
chain: EMEKRLQDLENQYRKEKEEADLLLEQQRLYADSDSGDDSDKRSCEESWRLISSLREQLPPTTVQTIVKRCGLPSSGKRRAPRRVYQIPQRRRLQGKDPRWATMADLKMQAVKEICYEVALADFRHGRAEIEALAALKMRELCRTYGKPDGPGDAWRAVARDVWDTVGEEEGGGAGSGGGSEEGARGAEVEDLRAHIDKLTGILQEVKLQNSSKDRELQALRDRMLRMERVIPLAQDHEDENEEGGEVPWAPPEGSEAAEEAAPSDRMPSARPPSPPLSSWE
  TMR–dynein landing rate on microtubules (TIRF), dynein–dynactin–HOOK3 with against without GST–KIF1C stalk–GFP: 2.6 fold
